Consider 1 molecule from PMC6426840.

This test addresses recombinant human matrix metalloproteinase-2 (rh-proMMP2 activated with APMA) (human) (UniProt P08253).
Sequence of UniProt P08253 (P08253 30-660): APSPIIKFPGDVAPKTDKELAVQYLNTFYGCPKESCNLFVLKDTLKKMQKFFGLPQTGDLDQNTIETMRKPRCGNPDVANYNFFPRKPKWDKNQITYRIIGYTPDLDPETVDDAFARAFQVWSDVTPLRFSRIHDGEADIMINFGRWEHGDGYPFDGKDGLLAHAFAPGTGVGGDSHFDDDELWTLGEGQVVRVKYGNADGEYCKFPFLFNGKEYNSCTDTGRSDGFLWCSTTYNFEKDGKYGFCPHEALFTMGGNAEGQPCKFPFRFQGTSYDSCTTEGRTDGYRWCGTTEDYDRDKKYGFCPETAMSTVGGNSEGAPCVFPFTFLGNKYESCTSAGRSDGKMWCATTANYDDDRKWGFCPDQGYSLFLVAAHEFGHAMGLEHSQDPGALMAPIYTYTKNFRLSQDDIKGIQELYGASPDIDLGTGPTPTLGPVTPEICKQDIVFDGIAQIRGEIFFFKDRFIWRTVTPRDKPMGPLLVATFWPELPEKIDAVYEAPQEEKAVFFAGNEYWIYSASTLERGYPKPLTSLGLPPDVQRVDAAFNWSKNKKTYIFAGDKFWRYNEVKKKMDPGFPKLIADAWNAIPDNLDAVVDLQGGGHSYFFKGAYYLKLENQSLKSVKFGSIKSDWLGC

B1: recombinant human tissue inhibitor of metalloproteinases 3 (natural protein)
chain: CTCSPSHPQDAFCNSDIVIRAKVVGKKLVKEGPFGTLVYTIKQMKMYRGFTKMPHVQYIHTEASESLCGLKLEVNKYQYLLTGRVYDGKMYTGLCNFVERWDQLTLSQRKGLNYRYHLGCNCKIKSCYYLPCFVTSKNECLWTDMLSNFGYPGYQSKHYACIRQKGGYCSWYRGWAPPDKSIINATDP
B1: the MMP2 enzyme activity left (fluorogenic peptide MCA-Pro-Leu-Ala-Nva-Dpa-Ala-Arg-NH2, endpoint after 5 h) with 100 ng/mL rhMMP2 and 40 ng/mL rhTIMP3, molecular ratio about 1:1, without GAG came to 15%; the TIMP3-induced inhibition of MMP2 enzyme activity when hyaluronan (HA, 200 µg/mL) is added to MMP2 and TIMP3 pre-incubated for 30 min at 25 °C; change against the control without GAG worked out at 5%.
